From patent KR20170011863A

Substrate: B형 간염 바이러스의 표면 항원 (Hepatitis B surface antigen; HBsAg) (Hepatitis B virus)
Assay: cell-based or functional assay

- EC50 (effective concentration) of inhibition of HBV infection of HepG2-NTCP cells: 0.015 µg/mL
- EC50 (effective concentration) of inhibition of HBV infection of HepG2-NTCP cells, converted to molar concentration (150 kDa): 0.1 nM
B1: GC1102 (HBsAg에 대한 인간 HBV 항체) (antibody, V domains shown)
VH: QVKLLESGGGLVKPGGSLRLSCSASGFSLTKYKMTWVRQAPGKGLEWVSSISSTSRDIDYADSVKGRFTISRDNAKNSLFLQMSSLRVDDTAVYYCTRDGWLWGWDVRSNYYYNALDVWGQGTTVTVSS
VL: ELVMTQSPSSLSASVGDRVTITCRASQGIYNSIAWYQQKPGKAPKLLLYSTSTLLSGVPSRFSGSGSGTDYTLTITNLQPEDFATYYCQQYFVTPETFGQGTKVEIKR
